The source of these data is article doi:10.1101/2022.07.21.500940 (bioRxiv, 2022).

The test addresses Human PCNA (human, UniProt P12004 1-261). As to the kind of experiment: pull-down.

Human PCNA, sequence (P12004 whole entry): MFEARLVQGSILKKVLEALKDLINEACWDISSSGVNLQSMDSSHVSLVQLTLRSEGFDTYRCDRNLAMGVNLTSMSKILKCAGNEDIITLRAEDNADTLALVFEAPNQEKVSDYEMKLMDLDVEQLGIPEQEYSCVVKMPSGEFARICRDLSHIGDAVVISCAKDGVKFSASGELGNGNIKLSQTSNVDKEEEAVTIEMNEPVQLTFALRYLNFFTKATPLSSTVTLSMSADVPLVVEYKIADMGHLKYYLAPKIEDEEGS

B1: GST-tagged SNM1A PIP box peptide (GST-PIP) (peptide)
chain: ARHPSTKVMKQMDIGVYFGLPPKRKEEKLL
As to B1, the binding result is “binds”.
